The values below come from patent US8685668B2, “Method of expressing proteins with disulfide bridges” (University of Southern California, priority 2005, dated 2014).

In data set [1] the target is T1, GPIIb/IIIa (integrin αIIbβ3) (Homo sapiens, UniProt P05106+P08514).
T1 construct: endogenous in cells; host or cells: platelets in fresh platelet-rich plasma
Nature of the data set: ADP-induced platelet aggregation inhibition assay in platelet-rich plasma. It counts as cell-based. Particulars: inhibitor added one minute prior to ADP (1 μM). Here is the method: Different concentrations of native CN, Vicrostatin (VN), or rCN conformer were incubated with platelet-rich plasma. Addition of ADP induces platelet aggregation; VN, rCN conformer, or native CN were added one minute prior to ADP.
The recombinant CN products were evaluated for biological activity by a platelet aggregation inhibition assay. According to this assay, CN binding to GPIIb/IIIa (integrin αIIbβ3) in an RGD dependent manner inhibits ADP induced platelet aggregation (Trikha, Rote et al. 1994). In this assay, potential inhibitors are added to fresh platelet-rich plasma, and after minute, ADP is added to a final concentration of 1 μM to induce aggregation. If inhibitor is present, functional aggregation will not occur. The IC50 is defined as the concentration at which 50% of the activity is inhibited, and is used as a measure of the potency of an inhibitor.

Data set [2] deals with MDA-MB-435 breast carcinoma cells. The experiment in a line: Inhibition of MDA-MB-435 cell adhesion to immobilized fibronectin (MTS readout). It counts as cell-based, human. Particulars: 0-1000 nM, 30 min pretreatment, adhesion 1 hr at 25° C. The method, then: (§1) Pretreated cells were allowed to adhere for 1 hr at 25° C., and after non-adherent cells were washed away, the number of adherent cells for each condition was estimated using the MTS cell viability assay.
(§2) Pretreated cells were allowed to adhere for 1 hr at 25° C., and after non-adherent cells were washed away, the number of adherent cells for each condition was estimated using the MTS cell viability assay. In the cell invasion assay, an invasion chamber consisting of cell culture inserts that fit into 24-well tissue culture plate has been utilized. The inserts contain an 8 μm-pore size polycarbonate membrane, over which a thin layer of ECMatrix™ was applied. The ECMatrix™ serves as an in vitro reconstituted basement membrane and is a solid gel of ECM proteins prepared from the Engelbreth Holm-Swarm (EHS) mouse tumor. The ECM layer occludes the membranes pores, blocking non-invasive cells to migrate through. […] At the 8 hr time point the cells that invaded through the pores into the lower chamber were measured. The numbers of invaded cells for each condition were approximated by quantitating the retrieved labeled DNA using a fluorescent plate reader. The results were calculated in % invasion, where the untreated control was considered as 100% invasion.

The test system is the same in data set [3]. Nature of the data set: Inhibition of MDA-MB-435 cell adhesion to immobilized vitronectin (MTS readout). Particulars: 0-1000 nM, 30 min pretreatment, adhesion 1 hr at 25° C. It counts as cell-based, human. Here is the method: as §1, §2
A short description of data set [4]: Liposome encapsulation, size and stability (BCA protein assay after liposome disruption). It counts as physicochemical. Here is the method:
Endotoxin-free VN containing liposomes (referred to as LVN) and endotoxin-free native CN containing liposomes (referred to as LCN) were prepared utilizing a probe sonication previously described (Fujii, Chang et al. 1997). Briefly, the lipids (disteroylphosphatidylcholine, cholesterol and polyethylene glycol derivatized lipid) were dissolved in a chloroform/methanol solution. Thin lipid films were created by pipetting aliquots of the lipid solution into round bottom glass tubes followed by solvent evaporation at 65° C. under a stream of nitrogen gas. The films were placed under vacuum for at least 24 hours to remove residual organic solvent. Liposomes formed following hydration of the lipid films with native CN or VN dissolved in 10 mM sodium phosphate, 9% sucrose, pH 7.2. The mixture was incubated at 65° C. for 5-10 minutes. Hydration was followed by probe sonication until the suspension was translucent. […]
The concentration of liposome entrapped CN/VN was determined by disruption of the liposomes with chloroform/methanol/water (10:40:50) followed by centrifugation at 14,000×g. The supernatant was analyzed for CN/VN concentration using BCA protein assay (Smith, Krohn et al. 1985). The encapsulation efficiency was assessed by BCA protein determination following disruption of the LrCN with a solution of H2O:methanol:chloroform.

B1: contortrostatin (protein)
chain: DAPANPCCDAATCKLTTGSQCADGLCCDQCKFMKEGTVCRRARGDDLDDYCNGISAGCPRNPFH
Molecule B1 yielded an IC50 in data set [1] of about 0.06 µM. In data set [2], the “inhibition of MDA-MB-435 cell adhesion to immobilized fibronectin (Fn)” value was “inhibited adhesion”. Further, the “inhibition of MDA-MB-435 cell adhesion to immobilized vitronectin (Vn)” value in data set [3] is “inhibited adhesion”. In data set [4], the “protein in the encapsulation solution entrapped within the liposomes” value turned out to be 80%.

The term IC50 denotes the concentration at which inhibition is half-maximal.
